# Assay results from patent publication US20090221680, “Aptamers that bind thrombin with high affinity” (published 2009).
# Target: prothrombin (Homo sapiens, UniProt P00734 P00734:44-622)
# Test: filter; 50 nM prothrombin
# Conditions: tags: Athens Research
# Method: Dot blot binding assays were performed throughout the selections to monitor the protein binding affinity of the pools. Trace ³²P-labeled RNA was combined with a dilution series of human Thrombin (1 nM-1000 nM) and incubated at room temperature for 30 minutes in 1×DPBS (w/ Ca²⁺ and Mg²⁺) (Gibco, Catalog #14040, Invitrogen, Carlsbad, Calif.) plus 0.1 mg/ml BSA in a final volume of 30 μl. The binding reactions were analyzed by nitrocellulose filtration using a Minifold I dot-blot, 96-well vacuum filtration manifold (Schleicher & Schuell, Keene, N.H.). A three-layer filtration medium was used, consisting (from top to bottom) of Protran nitrocellulose (Schleicher & Schuell, Keene, N.H.), Hybond-P nylon (Amersham Biosciences, Piscataway, N.J.) and GB002 gel blot paper (Schleicher & Schuell, Keene, N.H.). RNA that is bound to protein is captured on the nitrocellulose filter, whereas the non-protein bound RNA is captured on the nylon filter. The gel blot paper was included simply as a supporting medium for the other filters. Following filtration, the filter layers were separated, dried and exposed on a phosphor screen (Amersham Biosciences, Piscataway, N.J.) and quantified using a Storm 860 Phosphorimager® blot imaging system (Amersham Biosciences, Piscataway, N.J.).
# Based on pool binding monitored throughout the selections as described above, Round 9 Pools from both Selection #2 and #3 were also cloned using a TOPO TA Cloning kit (Invitrogen, Carlsbad, Calif.) according to manufacturer's instructions, and sequenced. Of the 136 sequences obtained from Round 9 of both selections, 130 unique sequences were selected for assaying in a single-point dot blot screen against thrombin and prothrombin to test for selective binding to thrombin. Clones were ordered from IDT (Coralville, Iowa) at 25 μmole synthesis scale. Clone transcripts were 5′ end labeled with γ̅³²P ATP and spin purified with Centrisep columns (Princeton Separations, Adelphia, N.J.) to remove excess label. Trace amounts of labeled clone were incubated with +/−10 nM Thrombin (or +/−50 nM prothrombin) and 0.1 mg/ml BSA in a total volume of 30 μl 1×DPBS (w/ Ca²⁺ and Mg²⁺) (Gibco, Catalog #14040, Invitrogen, Carlsbad, Calif.) for 30 minutes. Post incubation, the binding reaction applied the dot-blot binding assay apparatus previously described.
row,Binder,binding signal [% bound]
1,TCCCTGGTATCGTATCCAAAGGGGTGGTGTGGGTGGCTGAGGATCGATC (ssDNA) [AMX(399)_H8],14.3
2,TCCCATTGATCTGTGGTGGTTTTGTGGTTTGGGTGGCTGAGGATCGATC (ssDNA) [AMX(398)_A2],28.4
3,TCCCATCGATTTGGGGTATGTTATGGGCTCGGGTGGCTGAGGATCGATC (ssDNA) [AMX(398)_A6],31.3
4,TCCCTATCGAGCTGTGGTAGTATTCTGGTTTGGGTGGCTGAGGATCGATC (ssDNA) [AMX(398)_A7],25.4
5,TCCCATCGGTCCGGGGTAATTTACTGGGTCGGGTGGCTGAGGATCGATC (ssDNA) [AMX(398)_A8],43.9
6,TCCCGTCGAGCCGGGGTATGATTATGGGTGGGGTGGCTGAGGATCGATC (ssDNA) [AMX(398)_A9],29.7
7,TCCCTGGAGATCCGGGGTAGTATACTGGTTTGGGTGGCTGAGGATCGATC (ssDNA) [AMX(398)_A12],37.5
8,TCCCAATCGAGCCGGGGTTTGTTTGTTCTGGGTGGCTGAGGATCGATC (ssDNA) [AMX(398)_B1],32.7
9,TCCCAGATGTGATCCGTATCCTGGTTTGGTTGGGTGGCTGAGGATCGATC (ssDNA) [AMX(398)_B3],16.5
10,TCCCTGATCCTTAGGCTAGGTTGGGTGGGGTGGTGGCTGAGGATCGATC (ssDNA) [AMX(398)_B5],8.27
11,TCCCTCGATCTTGGGGTACTATAGTGGTGTGGGTGGCTGAGGATCGATC (ssDNA) [AMX(398)_B10],25.7
12,TCCCGATTATCCGTTGGTATTGTTGGTCTGGGTGGCTGAGGATCGATC (ssDNA) [AMX(398)_B12],20.2
13,TCCCAACGATCTGTGGTTTTTTTGTTCTGGGTGGCTGAGGATCGATC (ssDNA) [AMX(398)_C1],37
14,TCCCAAGGATCCGGGGTAGTTAGTGGCTGAGGTGGCTGAGGATCGATC (ssDNA) [AMX(398)_C2],0.66
15,TCCCATGATTGGCCGGGGTGTCTTTTGGGTCGGGTGGCTGAGGATCGATC (ssDNA) [AMX(398)_C6],11.6
16,TCCCGATCGTTTCGTGGGGTAGTGTTGGTTGGGGTGGCTGAGGATCGATC (ssDNA) [AMX(398)_C9],20.7
17,TCCTGTCGATCGGTACGTTTTCGTTTCTGGGTGGCTGAGGATCGATC (ssDNA) [AMX(398)_C11],36.7

row,Binder,binding signal [% bound]
1,TCCCTGCAATCGGTGCTCGAGAGGTTGGGTGGGTGGCTGAGGATCGATC (ssDNA) [AMX(398)_C12],15.5
2,TCCCGATTTGAGTTTAGTAGGGTGGGTAGGATGGTGGCTGAGGATCGATC (ssDNA) [AMX(398)_D1],11.8
3,TCCCATGATCGGGTCGGTATTTGTTGGTCAGGGTGGCTGAGGATCGATC (ssDNA) [AMX(398)_D3],20.8
4,TCCCAGCGGTCCTAATGGGTAGTGTTGGTTTGGGTGGCTGAGGATCGATC (ssDNA) [AMX(398)_D5],12.9
5,TCCCTTGTCGATTCTGGTATGTTTTGGTCCGGGTGGCTGAGGATCGATC (ssDNA) [AMX(398)_D7],34.6
6,TCCCATCGATCCGGGGTATTCTTATTTCTGGGTGGCTGAGGATCGATC (ssDNA) [AMX(398)_E1],20.9
7,TCCCGATCGGACGTGGTGGGTTACTTCTGGGTGGCTGAGGATCGATC (ssDNA) [AMX(398)_E5],25.4
8,TCCCATCGAGACGGGGTGTCTTTTGTGGCTTGGGTGGCTGAGGATCGATC (ssDNA) [AMX(398)_E6],30.3
9,TCCCTTGATCTGGGGTGCGTTATTGTGGTTCGGGTGGCTGAGGATCGATC (ssDNA) [AMX(398)_E7],20.3
10,TCCCTATCGACCGGGGTTCTTTCGTGGTTCGGGTGGCTGAGGATCGATC (ssDNA) [AMX(398)_E8],26.7
11,TCCCGGATCTGTGGTAGGTTTGTTGGGTTGGGTGGCTGAGGATCGATC (ssDNA) [AMX(398)_E12],39.9
12,TCCCATCGAGTCGTGGTGTTTTGTTGGCCTGGGTGGCTGAGGATCGATC (ssDNA) [AMX(398)_F2],8.81
13,TCCCGATCGAGAGTGGTATTTGTTTTCTGGGTGGCTGAGGATCGATC (ssDNA) [AMX(398)_F5],19.4
14,TCCCTTGATCCGGTGGTAGTTTTATTGGTGCGGGTGGCTGAGGATCGATC (ssDNA) [AMX(398)_F6],24.6
15,TCCTGTCGATCCCTACGGGTAGTGTTGGTTTGGGTGGCTGAGGATCGATC (ssDNA) [AMX(399)_B9],14.3
16,TCCCATTGATCCGGGGTGGTTTTCTGGTTTGGGTGGCTGAGGATCGATC (ssDNA) [AMX(399)_B10],23.6

# Target: thrombin (alpha-thrombin) (Homo sapiens, UniProt P00734;P00734 P00734:315-363,P00734:364-622)
# Test: filter; 10 nM thrombin
# Conditions: not given
row,Binder,binding signal [% bound]
1,TCCCTGGTATCGTATCCAAAGGGGTGGTGTGGGTGGCTGAGGATCGATC (ssDNA) [AMX(399)_H8],23.3
2,TCCCATTGATCTGTGGTGGTTTTGTGGTTTGGGTGGCTGAGGATCGATC (ssDNA) [AMX(398)_A2],26.7
3,TCCCATCGATTTGGGGTATGTTATGGGCTCGGGTGGCTGAGGATCGATC (ssDNA) [AMX(398)_A6],31.1
4,TCCCTATCGAGCTGTGGTAGTATTCTGGTTTGGGTGGCTGAGGATCGATC (ssDNA) [AMX(398)_A7],26.5
5,TCCCATCGGTCCGGGGTAATTTACTGGGTCGGGTGGCTGAGGATCGATC (ssDNA) [AMX(398)_A8],40
6,TCCCGTCGAGCCGGGGTATGATTATGGGTGGGGTGGCTGAGGATCGATC (ssDNA) [AMX(398)_A9],28.3
7,TCCCTGGAGATCCGGGGTAGTATACTGGTTTGGGTGGCTGAGGATCGATC (ssDNA) [AMX(398)_A12],35.4
8,TCCCAATCGAGCCGGGGTTTGTTTGTTCTGGGTGGCTGAGGATCGATC (ssDNA) [AMX(398)_B1],31.3
9,TCCCAGATGTGATCCGTATCCTGGTTTGGTTGGGTGGCTGAGGATCGATC (ssDNA) [AMX(398)_B3],17.5
10,TCCCTGATCCTTAGGCTAGGTTGGGTGGGGTGGTGGCTGAGGATCGATC (ssDNA) [AMX(398)_B5],12.5
11,TCCCTCGATCTTGGGGTACTATAGTGGTGTGGGTGGCTGAGGATCGATC (ssDNA) [AMX(398)_B10],26.8
12,TCCCGATTATCCGTTGGTATTGTTGGTCTGGGTGGCTGAGGATCGATC (ssDNA) [AMX(398)_B12],20.1
13,TCCCAACGATCTGTGGTTTTTTTGTTCTGGGTGGCTGAGGATCGATC (ssDNA) [AMX(398)_C1],35.8
14,TCCCAAGGATCCGGGGTAGTTAGTGGCTGAGGTGGCTGAGGATCGATC (ssDNA) [AMX(398)_C2],0.2
15,TCCCATGATTGGCCGGGGTGTCTTTTGGGTCGGGTGGCTGAGGATCGATC (ssDNA) [AMX(398)_C6],28
16,TCCCGATCGTTTCGTGGGGTAGTGTTGGTTGGGGTGGCTGAGGATCGATC (ssDNA) [AMX(398)_C9],20.7
17,TCCTGTCGATCGGTACGTTTTCGTTTCTGGGTGGCTGAGGATCGATC (ssDNA) [AMX(398)_C11],35.1

row,Binder,binding signal [% bound]
1,TCCCTGCAATCGGTGCTCGAGAGGTTGGGTGGGTGGCTGAGGATCGATC (ssDNA) [AMX(398)_C12],22.8
2,TCCCGATTTGAGTTTAGTAGGGTGGGTAGGATGGTGGCTGAGGATCGATC (ssDNA) [AMX(398)_D1],20.7
3,TCCCATGATCGGGTCGGTATTTGTTGGTCAGGGTGGCTGAGGATCGATC (ssDNA) [AMX(398)_D3],20
4,TCCCAGCGGTCCTAATGGGTAGTGTTGGTTTGGGTGGCTGAGGATCGATC (ssDNA) [AMX(398)_D5],12
5,TCCCTTGTCGATTCTGGTATGTTTTGGTCCGGGTGGCTGAGGATCGATC (ssDNA) [AMX(398)_D7],35
6,TCCCATCGATCCGGGGTATTCTTATTTCTGGGTGGCTGAGGATCGATC (ssDNA) [AMX(398)_E1],23.4
7,TCCCGATCGGACGTGGTGGGTTACTTCTGGGTGGCTGAGGATCGATC (ssDNA) [AMX(398)_E5],25.6
8,TCCCATCGAGACGGGGTGTCTTTTGTGGCTTGGGTGGCTGAGGATCGATC (ssDNA) [AMX(398)_E6],29.5
9,TCCCTTGATCTGGGGTGCGTTATTGTGGTTCGGGTGGCTGAGGATCGATC (ssDNA) [AMX(398)_E7],27.9
10,TCCCTATCGACCGGGGTTCTTTCGTGGTTCGGGTGGCTGAGGATCGATC (ssDNA) [AMX(398)_E8],26.4
11,TCCCGGATCTGTGGTAGGTTTGTTGGGTTGGGTGGCTGAGGATCGATC (ssDNA) [AMX(398)_E12],40.4
12,TCCCATCGAGTCGTGGTGTTTTGTTGGCCTGGGTGGCTGAGGATCGATC (ssDNA) [AMX(398)_F2],8.76
13,TCCCGATCGAGAGTGGTATTTGTTTTCTGGGTGGCTGAGGATCGATC (ssDNA) [AMX(398)_F5],21.3
14,TCCCTTGATCCGGTGGTAGTTTTATTGGTGCGGGTGGCTGAGGATCGATC (ssDNA) [AMX(398)_F6],23.9
15,TCCTGTCGATCCCTACGGGTAGTGTTGGTTTGGGTGGCTGAGGATCGATC (ssDNA) [AMX(399)_B9],14.7
16,TCCCATTGATCCGGGGTGGTTTTCTGGTTTGGGTGGCTGAGGATCGATC (ssDNA) [AMX(399)_B10],24.4
